Experimental data: patent US20250019439A1 (Adimab, published 2025)

Tests used:
Test in all cases: BLI; tip anti-CD3 bsIgG, solution ADI-34145 IgG
ADI-26916 anti-CD3 bsIgG = target: T1, ADI-26916 anti-CD3 bsIgG
T1 construct: anti-HER2 IgG with one Fab arm replaced by the anti-CD3 scFv (printed 'Vx-VH', read as VL-VH); S354C and Y349C mutations; also called anti-CD3 bsIgG (ADI-26916 scFv); not shown: scFv linker; anti-HER2 Fab arm (heavy and light chain); hinge and Fc with S354C/Y349C; copies: 1 + 1
Experimental: (§1) ForteBio affinity measurements were performed generally as previously described (Estep et al., MAbs. 2013 5(2):270-8). Briefly, ForteBio affinity measurements were performed by loading antibody IgG or Fabs on-line onto AHC sensors. Sensors were equilibrated off-line in assay buffer for 30 minutes and then monitored on-line for 60 seconds for baseline establishment. For avid binding measurement, sensors with loaded antibodies were exposed to IgG or Fab solutions for 3 minutes, afterwards they were transferred to assay buffer for 3 minutes for off-rate measurement. Kinetics data were fit using a 1:1 binding model in the data analysis software provided by ForteBio to obtain equilibrium dissociation constant (KD=koff/kₒₙ) values. In each column, tip-immobilized antibodies are listed first and solution antibodies second.
(§2) Additional analysis was conducted using bispecific antibody formats incorporating anti-CD3 antibody variable domains. Bispecific antibodies were prepared using standard IgG formats (bsIgG) with replacement of Fab arms with anti-CD3 scFvs in Vx-VH orientation and with S354C and Y349C mutations for disulfide stabilization. Antibodies used for Fab arm replacement were anti-HER2 IgG antibodies, with one Fab arm from each replaced by a scFv corresponding to a different anti-CD3 antibody. […] In each column, tip-immobilized antibodies are listed first and solution antibodies second. Anti-CD3 antibodies associated with incorporated scFvs are listed by antibody number.

CTL-19672 anti-CD3 bsIgG = target: T2, CTL-19672 anti-CD3 bsIgG (In the assay the two domains were one scFv (VL-VH orientation, linker not given). It replaced one Fab arm of an anti-HER2 IgG; S354C and Y349C mutations are stated for disulfide stabilization.)
T2 construct: anti-HER2 IgG with one Fab arm replaced by the anti-CD3 scFv (printed 'Vx-VH', read as VL-VH); S354C and Y349C mutations; not shown: scFv linker between VL and VH; anti-HER2 heavy and light chains of the other arm; hinge and Fc (with S354C / Y349C)
Experimental: as §1, §2

ADI-26906 anti-CD3 bsIgG = target: T3, ADI-26906 anti-CD3 bsIgG
T3 construct: anti-HER2 IgG with one Fab arm replaced by the anti-CD3 scFv (printed 'Vx-VH', read as VL-VH); S354C and Y349C mutations; also called anti-CD3 bsIgG (ADI-26906 scFv); not shown: scFv linker; anti-HER2 Fab arm (heavy and light chain); hinge and Fc with S354C/Y349C
Experimental: as §1, §2

ADI-26913 anti-CD3 bsIgG = target: T4, ADI-26913 anti-CD3 bsIgG
T4 construct: anti-HER2 IgG with one Fab arm replaced by the anti-CD3 scFv (printed 'Vx-VH', read as VL-VH); S354C and Y349C mutations; also called anti-CD3 bsIgG (ADI-26913 scFv); not shown: scFv linker; anti-HER2 Fab arm (heavy and light chain); hinge and Fc with S354C/Y349C
Experimental: as §1, §2

ADI-26920 anti-CD3 bsIgG = target: T5, ADI-26920 anti-CD3 bsIgG
T5 construct: anti-HER2 IgG with one Fab arm replaced by the anti-CD3 scFv (printed 'Vx-VH', read as VL-VH); S354C and Y349C mutations; also called anti-CD3 bsIgG (ADI-26920 scFv); not shown: scFv linker; anti-HER2 Fab arm (heavy and light chain); hinge and Fc with S354C/Y349C
Experimental: as §1, §2

CTL-19613 anti-CD3 bsIgG = target: T6, CTL-19613 anti-CD3 bsIgG (In the assay the two domains were one scFv (VL-VH orientation, linker not given). It replaced one Fab arm of an anti-HER2 IgG; S354C and Y349C mutations are stated for disulfide stabilization.)
T6 construct: anti-HER2 IgG with one Fab arm replaced by the anti-CD3 scFv (printed 'Vx-VH', read as VL-VH); S354C and Y349C mutations; also called anti-CD3 bsIgG (CTL-19613 scFv); not shown: scFv linker between VL and VH; anti-HER2 heavy and light chains of the other arm; hinge and Fc (with S354C / Y349C)
Experimental: as §1, §2

ADI-26954 anti-CD3 bsIgG = target: T7, ADI-26954 anti-CD3 bsIgG
T7 construct: anti-HER2 IgG with one Fab arm replaced by the anti-CD3 scFv (printed 'Vx-VH', read as VL-VH); S354C and Y349C mutations; also called anti-CD3 bsIgG (ADI-26954 scFv); not shown: scFv linker; anti-HER2 Fab arm (heavy and light chain); hinge and Fc with S354C/Y349C
Experimental: as §1, §2

ADI-22523 anti-CD3 bsIgG = target: T8, ADI-22523 anti-CD3 bsIgG (In the assayed molecule VL and VH are joined as one scFv (printed 'Vx-VH' orientation) by an undisclosed linker and fused to an Fc, paired with an anti-HER2 half-IgG. They are given here as two …)
T8 construct: anti-HER2 IgG with one Fab arm replaced by the anti-CD3 scFv (printed 'Vx-VH', read as VL-VH); S354C and Y349C mutations; not shown: scFv linker between VL and VH; anti-HER2 heavy and light chains; hinge and Fc with S354C/Y349C
Experimental: as §1, §2

T5 sequence (VH, as listed by the source limits assumed, chain 1 of 2): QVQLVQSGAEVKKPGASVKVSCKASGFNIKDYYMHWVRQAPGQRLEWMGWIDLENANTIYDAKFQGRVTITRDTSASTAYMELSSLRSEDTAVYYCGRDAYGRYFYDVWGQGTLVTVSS
T5 sequence (VL, as listed by the source limits assumed, chain 2 of 2): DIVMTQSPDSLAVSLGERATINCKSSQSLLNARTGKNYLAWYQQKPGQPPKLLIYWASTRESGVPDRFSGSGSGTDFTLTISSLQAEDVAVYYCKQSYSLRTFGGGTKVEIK
T3 sequence (VH, as listed by the source limits assumed, chain 1 of 2): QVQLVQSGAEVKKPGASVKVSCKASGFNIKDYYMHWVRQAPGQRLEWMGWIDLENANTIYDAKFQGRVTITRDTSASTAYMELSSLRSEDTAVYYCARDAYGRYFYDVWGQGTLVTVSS
T3 sequence (VL, as listed by the source limits assumed, chain 2 of 2): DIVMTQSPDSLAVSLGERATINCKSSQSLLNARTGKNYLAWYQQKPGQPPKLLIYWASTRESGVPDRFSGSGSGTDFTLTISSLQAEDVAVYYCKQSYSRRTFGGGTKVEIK
T1 sequence (VH, as listed by the source limits assumed, chain 1 of 2): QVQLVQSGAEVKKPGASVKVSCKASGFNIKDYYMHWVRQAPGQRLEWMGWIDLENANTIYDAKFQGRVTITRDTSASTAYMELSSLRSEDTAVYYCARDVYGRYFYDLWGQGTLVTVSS
T2 sequence (VH, as listed by the source limits assumed, chain 1 of 2): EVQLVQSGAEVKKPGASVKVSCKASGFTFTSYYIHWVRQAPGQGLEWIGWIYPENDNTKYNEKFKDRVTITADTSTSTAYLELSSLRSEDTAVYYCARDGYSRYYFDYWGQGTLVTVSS
T2 sequence (VL, as listed by the source limits assumed, chain 2 of 2): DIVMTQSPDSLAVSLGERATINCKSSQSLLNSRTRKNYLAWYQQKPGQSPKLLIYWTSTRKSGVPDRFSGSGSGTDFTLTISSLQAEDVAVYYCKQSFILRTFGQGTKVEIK
T8 sequence (VH, as listed by the source limits assumed, chain 1 of 2): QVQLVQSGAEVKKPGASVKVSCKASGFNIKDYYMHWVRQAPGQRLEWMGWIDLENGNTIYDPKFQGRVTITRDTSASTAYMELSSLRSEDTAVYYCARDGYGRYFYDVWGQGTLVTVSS
T8 sequence (VL, as listed by the source limits assumed, chain 2 of 2): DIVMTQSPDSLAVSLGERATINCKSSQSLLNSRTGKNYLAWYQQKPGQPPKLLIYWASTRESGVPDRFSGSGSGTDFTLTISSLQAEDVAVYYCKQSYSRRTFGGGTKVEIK
T7 sequence (VH, as listed by the source limits assumed, chain 1 of 2): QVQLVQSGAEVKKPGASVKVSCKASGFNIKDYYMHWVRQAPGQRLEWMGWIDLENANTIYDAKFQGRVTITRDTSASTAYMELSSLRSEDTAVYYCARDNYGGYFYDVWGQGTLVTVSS
T7 sequence (VL, as listed by the source limits assumed, chain 2 of 2): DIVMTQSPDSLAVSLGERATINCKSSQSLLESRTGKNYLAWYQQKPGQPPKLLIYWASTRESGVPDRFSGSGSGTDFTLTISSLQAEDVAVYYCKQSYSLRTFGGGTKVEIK
T4 sequence (VH, as listed by the source limits assumed, chain 1 of 2): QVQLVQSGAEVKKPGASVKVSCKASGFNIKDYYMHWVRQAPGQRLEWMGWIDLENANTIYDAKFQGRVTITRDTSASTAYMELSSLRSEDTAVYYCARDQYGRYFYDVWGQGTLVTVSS

B1: ADI-34145 IgG (antibody, V domains shown)
VH: EVQLLESGGGLVQPGGSLRLSCAASGFTFSSYAMSWVRQAPGKGLEWVSTISGSGGSTYYADSVKGRFTISRDNSKNTLYLQMNSLRAEDTAVYYCARLGGRRGSGSSYYYYYGMDVWGQGTTVTVSS
VL: not shown
notes: anti-ID IgG
With B1 the Kd (ADI-26916 anti-CD3 bsIgG) was 57.1 nM, the binding result (CTL-19672 anti-CD3 bsIgG) was “no binding” and the Kd (ADI-26906 anti-CD3 bsIgG) was 13.4 nM. For the same binder, the Kd (ADI-26913 anti-CD3 bsIgG) was 14.7 nM, the Kd (ADI-26920 anti-CD3 bsIgG) was 6.72 nM and the binding result (CTL-19613 anti-CD3 bsIgG) was “no binding”. For the same binder, the Kd (ADI-26954 anti-CD3 bsIgG) was 27.8 nM and the Kd (ADI-22523 anti-CD3 bsIgG) was 9.13 nM.
